We go through one substance from publication PMC2390755.

This assay has as its target TAP-tagged ISWI (D. melanogaster) (UniProt Q24368). The assay is described as follows: pull-down; tandem affinity purification of TAP-tagged ISWI from larval nuclear extracts (IPP150 buffer): IgG agarose, TEV cleavage, calmodulin resin, SDS elution; Western blot for ISWI, Sin3A, Rpd3; untagged extracts as control. (In general: Immunoblotting shows a protein as a band on a membrane.)
Sequence of UniProt Q24368 (Q24368 whole entry): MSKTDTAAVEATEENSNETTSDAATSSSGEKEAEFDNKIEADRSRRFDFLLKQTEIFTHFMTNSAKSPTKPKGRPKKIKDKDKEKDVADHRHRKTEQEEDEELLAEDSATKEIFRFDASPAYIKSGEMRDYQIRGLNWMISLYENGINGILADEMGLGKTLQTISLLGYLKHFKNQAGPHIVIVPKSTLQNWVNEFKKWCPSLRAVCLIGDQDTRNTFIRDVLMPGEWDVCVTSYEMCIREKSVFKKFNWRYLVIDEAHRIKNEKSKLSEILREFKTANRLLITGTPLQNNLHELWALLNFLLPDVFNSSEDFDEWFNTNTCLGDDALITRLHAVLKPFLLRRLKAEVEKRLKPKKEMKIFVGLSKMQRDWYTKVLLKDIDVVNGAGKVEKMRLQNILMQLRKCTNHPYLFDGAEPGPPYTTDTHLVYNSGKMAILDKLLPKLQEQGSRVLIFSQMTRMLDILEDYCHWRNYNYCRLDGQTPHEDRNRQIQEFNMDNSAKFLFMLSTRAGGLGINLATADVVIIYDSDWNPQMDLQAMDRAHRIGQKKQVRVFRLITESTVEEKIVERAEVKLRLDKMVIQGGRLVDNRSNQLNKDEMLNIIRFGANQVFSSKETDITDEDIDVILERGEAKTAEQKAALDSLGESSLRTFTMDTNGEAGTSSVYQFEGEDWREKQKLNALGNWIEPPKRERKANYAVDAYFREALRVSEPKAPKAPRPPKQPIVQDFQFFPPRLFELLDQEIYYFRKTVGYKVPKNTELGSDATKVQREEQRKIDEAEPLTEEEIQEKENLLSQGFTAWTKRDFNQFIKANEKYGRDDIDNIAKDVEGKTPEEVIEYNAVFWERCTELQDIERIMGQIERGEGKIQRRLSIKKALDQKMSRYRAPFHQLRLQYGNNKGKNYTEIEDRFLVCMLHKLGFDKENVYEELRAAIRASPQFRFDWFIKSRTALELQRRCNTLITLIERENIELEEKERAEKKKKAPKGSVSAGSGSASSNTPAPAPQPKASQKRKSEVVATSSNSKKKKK

Substance Sin3A (natural protein) yielded a percent of the total protein in larval nuclear extract associated with ISWI (densitometry) of 15%.
